From patent US20110135636A1 (SYMPHOGEN A S, published 2011) come the findings set out here.

Broadly, the EC50 is the midpoint of the concentration-response curve. The Kd is the concentration at which binding is half-saturated. As a reminder, the koff is the rate constant with which the complex falls apart. What is called kon is the rate constant with which the complex forms. A word on the EC50 (read off the curve): it is the concentration needed to bring the measured effect to its halfway point. By % inhibition is commonly meant the drop in the measured response relative to a control, in per cent.

In assay [1] the target is T1, full length human EGFR expressed on the cell surface (human, UniProt P00533 25-1210).
T1 construct: whole, on cells; also called EGFR on A431-NS cells; EGFR on HN5 cells
Briefly: cell ELISA, Fab titrated on paraformaldehyde-fixed A431-NS cells; given as ED50. Here is the method: (§1) Cell ELISA: The relative binding affinities defined as the molar concentration giving the half maximal OD (ED50) were determined by antibody titrations on A431-NS cells. Briefly, 10,000 A431-NS cells were grown in 96 well ELISA plates containing DMEM with added 0.5% FCS and 1% P/S at 37° C., 5% CO₂ overnight. […] Then 50 μl of a secondary Goat-anti-Human (Fab specific) HRP conjugate diluted 1:5000 in DMEM containing 1% BSA was added and incubated on ice for 30 min. Finally wells were washed four times with PBS and plates developed by adding 50 μl/well TMB Plus substrate and read at 620 nm every 5-15-30 min. After incubation with substrate the reaction was stopped by addition of 1 M H₂SO₄ and absorbance read at 450 nm. The functional affinity expressed as ED50 values were calculated by subtraction of the average background binding with secondary reagent only, followed by normalization of the binding curves by plotting % maximal binding relative to each antibody tested.
On the technique in general: An ELISA detects its analyte on a solid surface through an enzyme-linked reagent.

The target in assay [2] is T1, full length human EGFR expressed on the …. Nature of the assay: cell ELISA, Fab titrated on paraformaldehyde-fixed A431-NS cells. Here is the method:
as §1

Assay [3] deals with T2, EGFR-Fc (recombinant EGFR ECD-Fc chimera, R&D Systems 344-ER) (human, UniProt P00533 25-645).
T2 construct: extracellular domain; Bought; also called immobilized Human EGFR ECD; immobilized receptor; not shown: human IgG Fc
Nature of the assay: SPR (BIAcore 2000); Fab over immobilized EGFR ECD-Fc.

For assay [4], the target named is T1, full length human EGFR expressed on the …. Nature of the assay: cell ELISA, Fab on A431-NS cells. As for the experimental part: as §1
In assay [5] the target is T3, recombinant human EGFR extracellular domain with 6xHis (human, UniProt P00533 25-645).
T3 construct: In-house produced; also called 6xHis EGFR ECD; soluble human EGFR ECD; not shown: 6xHis tag
Nature of the assay: SPR competition, competitor 1024. As for the experimental part:
(§2) SPR analysis was performed on a Biacore 3000 machine containing four flow cells. A CM5 Biacore chip was conjugated with 10,000 Resonance units (Ru) polyclonal anti-His antibody to flow cells 1-4 according to the manufacturer's instructions. […] Immediately after antigen injection the maximal binding of the Anti-EGFR mAb without competition was established in each flow cell during a reference run. Briefly 5 μl antibody at a concentration of 40 μg/ml was injected over all flow cells with captured EGFR followed by stripping of the antibody/antigen complex with a low pH acid wash (10 sec. contact time with 10 mM Glycine-HCl, pH2). After the determination of Anti-EGFR antibody maximal binding to each flow cell, a competition run was performed during the same Biacore cycle. Flow cells were first saturated with EGFR ECD antigen followed by injection of different reference antibodies or Anti-EGFR antibodies into separate flow cells using the same antigen saturating conditions as outlined above. This step was immediately followed by a second injection of Anti-EGFR antibody over the flow cell saturated with EGFR antigen and competition antibody to minimize the dissociation of either antigen or blocking antibody. Then the antibody/antigen complexes were stripped off with a low pH acid wash (10 sec. contact time with 10 mM Glycine-HCl, pH 2) and the whole cycle beginning with the reference run was repeated with a new Anti-EGFR antibody. The degree of inhibition of tested Anti-EGFR antibodies were determined by comparing the Ru max value of the individual Anti-EGFR antibody before and after competition by introduction of report points recorded two seconds before and after injection of each sample.

Assay [6] addresses T3, recombinant human EGFR extracellular …. Nature of the assay: SPR competition, competitor 1030corr. As for the experimental part: as §2
For assay [7] the target is unchanged. Nature of the assay: SPR competition, competitor 1284. Here is the method: as §2
Assay [8] has the same target. Briefly: SPR competition, competitor 1277. Here is the method:
as §2

The target is the same in assay [9]. Nature of the assay: SPR competition, competitor Erbitux. Here is the method:
as §2

Assay [10] has the same target. Nature of the assay: SPR (BIAcore 2000); IgG captured on anti-human Fc, soluble monovalent EGFR ECD injected. As for the experimental part:
Kinetic analysis of the full length IgG antibodies of the invention was performed on a BIAcore 2000, employing an assay as described in (Canziani, Klakamp, et al. 2004, Anal. Biochem, 325:301-307) allowing measurement of monovalent affinities of whole IgG molecules against soluble antigen. […] The chip surface was regenerated in between cycles by stripping the captured antibody/antigen complexes with a 10 second injection of 100 mM H₃PO₄. […] The association rate constant (ka) and dissociation constant (kd) were evaluated globally from the generated sensograms with the BIA evaluation software 4.1 provided by the manufacturer.
For orientation: SPR reads the build-up and loss of mass on a sensor chip optically.

Assay [11] shares this target. Briefly: SPR competition, competitor 1208. Here is the method: as §2
Assay [12] shares this target. Briefly: SPR competition, competitor 1254. As for the experimental part: as §2
Assay [13] has the same target. Nature of the assay: SPR competition, competitor 1260. Here is the method:
as §2

Assay [14] shares this target. Briefly: SPR competition, competitor 1344. As for the experimental part:
as §2

For assay [15] the target is unchanged. Briefly: SPR competition, competitor 1261. As for the experimental part:
as §2

Assay [16] shares this target. Briefly: SPR competition, competitor 1308. As for the experimental part: as §2
The target in assay [17] is T4, Cynomolgus EGFR extracellular domain (Cynomolgus monkey (Macaca fascicularis), UniProt P55245 25-645 (rhesus entry)).
T4 construct: Cloned without signal peptide; also called Cynomolgus rEGFR ECD; Cynomolgus EGFR ECD
Briefly: ELISA on cynomolgus EGFR ECD (Example 10). Here is the method: To verify that tested Anti-EGFR antibodies bound equally well to both Human and Cynomolgus EGFR ECD and accordingly warranting toxicology studies in Cynomolgus monkeys, serial four fold dilutions of antibodies beginning from 1 μg/ml were tested by ELISA for binding to recombinant Human and Cynomolgus EGFR ECD proteins. […] ELISA wells were coated with 50 μl/well of full length EGFR at a concentration of 1 μg/ml in PBS overnight at 4° C. The next morning wells were washed twice with PBS-T and blocked for one hour with 100 μl PBS-T-1% BSA at room temperature, followed by wash twice in PBS-T. Next 50 μl of serially diluted Anti-EGFR antibodies and control antibodies were added to wells and incubated for one hour at room temperature. After antibody incubation wells were washed five times with PBS-T, followed by incubation with 50 μl/well Streptavidin-HRP secondary reagent diluted 1:3000 in blocking buffer and incubation at room temperature for 30 min. Finally wells were washed five times with PBS-T and plates were developed by adding 50 μL/well TMB substrate and incubated at room temperature. After incubation the reaction was stopped by addition of 1 M H₂SO₄; 100 μl/well and plates were read at OD 450 nm.

Assay [18] concerns the target T3, recombinant human EGFR extracellular …. Briefly: SPR competition, competitor 1347. As for the experimental part: as §2
For assay [19] the target is unchanged. Briefly: SPR competition, competitor 1042. Here is the method:
as §2

The target is the same in assay [20]. Nature of the assay: SPR competition, competitor 1449. As for the experimental part:
as §2

For assay [21] the target is unchanged. Nature of the assay: SPR competition, competitor 1257. Here is the method:
as §2

Assay [22] shares this target. Nature of the assay: SPR competition, competitor 1320. As for the experimental part: as §2
Assay [23] has the same target. Nature of the assay: SPR competition, competitor Vectibix. As for the experimental part: as §2
For assay [24] the target is unchanged. Nature of the assay: SPR competition, competitor 992 corr. As for the experimental part:
as §2

For assay [25], the target named is T1, full length human EGFR expressed on the …. Nature of the assay: cell ELISA, Fab titrated on paraformaldehyde-fixed A431-NS cells, against SPR. Here is the method: as §1
Assay [26] addresses T2, EGFR-Fc (recombinant EGFR ECD-Fc …). Nature of the assay: SPR (BIAcore 2000); Fab over immobilized EGFR ECD-Fc; Scatchard analysis.

B1: Fab 1024 (Fab, V domains shown, not shown: small tags and cut ends)
VH: QVQLQQPGAELVEPGGSVKLSCKASGYTFTSHWMHWVKQRPGQGLEWIGEINPSSGRNNYNEKFKSKATLTVDKSSSTAYMQFSSLTSEDSAVYYCVRYYGYDEAMDYWGQGTSVTVS
VL: DIVMTQAAFSNPVTLGTSASISCRSSKSLLHSNGITYLYWYLQKPGQSPQLLIYQMSNLASGVPDRFSSSGSGTDFTLRISRVEAEDVGVYYCAQNLELPYTFGGGTKLEIKR
Molecule B1 registered an EC50 in [1] of 2 nM. In addition, in [2], the “Log ED50” value stood at 0.3. Moreover, in assay [3], the Kd is 25.6 nM, the dissociation rate constant (koff) was determined as 0.0049 s⁻¹, the kon was found to be 190000 M⁻¹ s⁻¹ and the “t1/2” value was 2.3 min. For the same molecule, the “EC50 (read off the curve)” value in assay [4] is ~2 nM.

B2: antibody 1254 (antibody, human IgG1, kappa, V domains shown)
VH: EVQLVESGGGLVKPGGSLKLSCAASGFAYSTYDMSWVRQTPEKRLEWVAYISSGGDAAYYPDTVKGRFTISRDNAKNTLYLQMSSLKSEDTAMYYCARSRYGNYGDAMDYWGQGTSVTVSS
VL: DVVMTQTPLSLPVSLGDQASISCRSSQSLVHSNGNTYLHWYLQKPGQSPKLLLYKVSNRFSGVPDRFSGSGSGTDFTLKISRVESEDLGVYFCSQNTHVYTFGGGTKLEIKR
notes: Chimeric IgG1 kappa; also called mAb 1254
Regarding B2, the “% inhibition” value is 6% in assay [5]; 82% in assay [6]; 6% in assay [7]; 99% in [8]; 44% in [9]; 108% in [11]. For the same molecule, the “% inhibition” value is 102% in [12]; 0% in assay [13]; 4% in [14]; 6% in assay [15]; -2% in assay [16]; 3% in assay [18]. For the same molecule, the “% inhibition” value in assay [19] worked out at 29%; in assay [20], 5%; in assay [21], 7%; in assay [22], 6%; in assay [23] it was 96%; in assay [24], 106%. Also, in assay [10], the Kd came to 12.7 nM. In assay [10], the koff stood at 0.001 s⁻¹. Also, the kon in assay [10] stood at 81000 M⁻¹ s⁻¹. For the same molecule, the “t1/2” value in assay [10] is 11.3 min. Besides, the binding result in [17] was “binds”.

B3: Fab 992 (Fab, V domains shown, not shown: small tags and cut ends)
VH: EVQLQQPGSELVRPGASVKLSCKASGYTFTSYWMHWVKQRPGQGLEWIGNIYPGSRSTNYDEKFKSKATLTVDTSSSTAYMQLSSLTSEDSAVYYCTRNGDYYVSSGDAMDYWGQGTSVTVS
VL: DIQMTQTTSSLSASLGDRVTISCRTSQDIGNYLNWYQQKPDGTVKLLIYYTSRLHSGVPSRFSGSGSGTDFSLTINNVEQEDVATYFCQHYNTVPPTFGGGTKLEIKR
As to B3, in assay [25], the “fold lower monovalent functional affinity value on cells than tested with BIAcore” value was ≥ 15 fold. The same molecule showed an EC50 in assay [1] of 9.9 nM. Besides, in [2], the “Log ED50” value came out at 1. Also, the Kd in assay [26] is 150 nM. Moreover, in assay [3], the “t1/2” value came to 0.2 min.
